{"source": "the domain aggregation screens of Martell et al. (2025)", "data": [{"test": "soluble fraction after stress (log2 fold change); higher = more stays soluble; pooled small domains, quantitative proteomics", "conditions": "stress: 50 degC", "method_in_brief": "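Pooled custom libraries of small protein domains were each held under stress at 50°C. The read-out, high-throughput quantitative proteomics, tracked how much of each protein stayed soluble. This is reported as a base-two log fold change used to indicate aggregation propensity. Higher values mean more protein remains in solution.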", "values": [{"sequence": "HMNEKLNEYLNQVKAYLNTSDNKEDIIKELEAVVLEKAEKKYGQITDESISKILSEFGSPAEVAKEYS", "soluble fraction (log2)": 0.129}, {"sequence": "HMNEKLRNYIDTLFEHAPTTVRAVELKEEMFQNLTDKYNDLIAQGKSEEAAFNIAVASIGDVDSLIAGLS", "soluble fraction (log2)": 0.219}, {"sequence": "HMNELGSLIKRKREELGLSQEELARILGYKHKSSINKIELGLADVPRTKVPAFAKALGMTPVEFS", "soluble fraction (log2)": 0.0771}, {"sequence": "HMNELPSVIIMKNGRTRPYELQEISKDEEWLNQTIREHGIEPKDIFIAEFWDGRTAFILNDGRIVK", "soluble fraction (log2)": -0.555}, {"sequence": "HMNERIKSLRKALGLTQQEFADKLGISRGNIGAYEVGKNAPSDAVISLIVRIFNTNENWLRTGEGEM", "soluble fraction (log2)": -0.145}, {"sequence": "HMNETSRTRALNILGLKATATQEDIKKAYRSLAKEYHPDKLVGVSEGVKKISEEKFREINEAYEYLI", "soluble fraction (log2)": 0.384}, {"sequence": "HMNEVIIKNWSNAVGRNIKIKTKRGRPIFGRLLAINDQQLTIASKYMRGNATITVAREDVVSMSVS", "soluble fraction (log2)": -0.516}, {"sequence": "HMNEVRINTAHIEHKYLGEVKVLDIQEMRNARGRDADPLAFLAIRFWSPRGVLVRVKDSRDATPYWLIS", "soluble fraction (log2)": 0.3}, {"sequence": "HMNEYHRNISDEEFVRDIKETAIKLKKETLTGVEYSQNGKYHASTIIHRFGSWKKALELAELNTK", "soluble fraction (log2)": -0.056}, {"sequence": "HMNFNYPVIVKNSRINVSGVLSAAKLYTINGQLLQSYKGSGEFTSKTLTKGIYILQVDNARTKVLV", "soluble fraction (log2)": -1.29}, {"sequence": "HMNFSKEYILVHSYKEIDILDALIVKYEATLVNREFDLFINSYIKINEDYAKLFRDEIISKTSGSMSIKEL", "soluble fraction (log2)": -0.825}, {"sequence": "HMNFTKHPENPNFVVYRFTDPERANSFRAELIANNISFEEDTEKKKQLIYTLFAIHTKYYNQSMQINIK", "soluble fraction (log2)": -0.463}, {"sequence": "HMNFTVTDKNAVLYSNDNTKVYESPDINSKLVTTIAKDLPVNVTGITSNGWFRISLEGTYYVPGNGLEQR", "soluble fraction (log2)": 0.141}, {"sequence": "HMNGADPYEQLGVTRDASDDELKAAHRKLSRENHPDTLMAKGMPPEFIEQANDKMARINAAWDQIRKERGI", "soluble fraction (log2)": 0.26}, {"sequence": "HMNGAITLRVRPSDEGKRLDVFVVSQLTGYTRSFVAGLIGDRHFLVNGQPKKPGYRIKSSDTISGVIPAPA", "soluble fraction (log2)": -1.21}, {"sequence": "HMNGARALAGAIAEAIRKQVYRVNERLPAERELASHYDVSRGTLRSALALLEQEGLVTRKVGSGTFVMPP", "soluble fraction (log2)": -0.438}, {"sequence": "HMNGNLRAQVLELMGRADYEPLNKSELSRKLDLQGSDRSSLRILMDELERDHSVVRLKKGRFALKVV", "soluble fraction (log2)": -0.853}, {"sequence": "HMNGQFIELKNTTGTIIEARVLSFQNGKVKLQRNDGLIFVASISIFDSESIEVIKQKVAEISESKKS", "soluble fraction (log2)": -0.224}, {"sequence": "HMNGQITPSRAKEIALGHAGVSEGSANFKKIKLDNKNGRPAYEIEFIANNSRYEFEINASNGSIIKFNK", "soluble fraction (log2)": 0.345}, {"sequence": "HMNGYGALVRLGRSRGWVTVEEINDHLPESAVRTAENVQEITEALGRLSIKVFETRPDEDDLLIT", "soluble fraction (log2)": -0.0632}, {"sequence": "HMNHGDATTETQAEIMAILSDMKPHPITELNTIKRPYEQIDTALTYLINEEKIYRMDGMIFIG", "soluble fraction (log2)": -0.694}, {"sequence": "HMNHYTEEYILKRMKDFFTTHAYITRRDIESLFGFRRSYATKWLKHFRESGVLKQSGPVNSAVYLL", "soluble fraction (log2)": -2.83}, {"sequence": "HMNIAESIRKYRKASGLTQEEMAKRLGVTTPAVSKWENGITNPDIALLAPIARLFHISVDTLLSYR", "soluble fraction (log2)": -0.403}, {"sequence": "HMNIDKLVGSTGTVVRSVTPDTAGLVRVNDEDWRASAEEILYERDAIVVEGIEGVTLIVSKLS", "soluble fraction (log2)": -0.43}, {"sequence": "HMNIETHIVPKLLAPIRLQEYGVGIFNNIPTKSALKKALKKQLITVDKTVATTATFIKGGETIELAYQ", "soluble fraction (log2)": -1.47}, {"sequence": "HMNIGEKIKTLRENNNISIEELAEKINDSIENILKYENNELEPTLDKKLALSIALGVTLSDLS", "soluble fraction (log2)": -0.114}, {"sequence": "HMNIGELINKKRTELGLTLEEVGNAVGVSKSTVKKWEDGFISNMRRDKISKLAKVLEMNPVSLITGE", "soluble fraction (log2)": 0.0389}, {"sequence": "HMNIGSKLRYLIEEANITQRQLADALHISPSALNGYINQGKEPDYATLVRIADYFHTSTDYLLGHSNIR", "soluble fraction (log2)": -0.00171}, {"sequence": "HMNIIATHTVPAIEQKIRLQEYAISIFPQINSRSALKKAIAKKLVLLDGERASTADWIQPGQKIELLEDK", "soluble fraction (log2)": -0.337}, {"sequence": "HMNILAPFWERFGLSAFAAGNYDRAEGYFRKLEQKDPNSMSVLRNLGLILMAKGDAEGAEAYLLREEKL", "soluble fraction (log2)": -0.67}, {"sequence": "HMNILKKDKRLWDENNLNKPLLFELLENYDKEIFELLLTDKDIKAKFFVQAGESYVFKYDDFRFAIEQN", "soluble fraction (log2)": -0.702}, {"sequence": "HMNIMAQDWISSPMGPISFKSNQHGLVKIGWGEVPRENTEQPNLEFTRKWLVDYFEGKASPLPYF", "soluble fraction (log2)": -0.329}, {"sequence": "HMNIQGIFGRNLKQKRLEKGMTQEQLAEKAGVSTDTVKRYESGKYDGIRLDMAWYMANALDTPLQALLPP", "soluble fraction (log2)": 0.367}, {"sequence": "HMNISALKGKIGEVYLKIPAHNAGKGKVLISLKGTHHELYAITRSGEDISSGEFVKVIEIEDEILVVEK", "soluble fraction (log2)": -0.58}, {"sequence": "HMNITFAENIKQFRKAKSMSMEELGKRLGKAKSSISAWENGKRTPKINELKSISEALGVTISQLLGF", "soluble fraction (log2)": -1.13}, {"sequence": "HMNIYIEFGRRLAFIRQNSKLSQSQIAQKLNIAQSTYAGYEKGVRKIPLEIIVQLSKILNISPTILILG", "soluble fraction (log2)": -3.91}, {"sequence": "HMNKADFLRKLDRELSVLDQEERKEILSFYEERFYTGTNYENKTELDIINELENPEIIAKNVLEEYGV", "soluble fraction (log2)": -0.154}, {"sequence": "HMNKDEFLRRLEDALSGEVPASVIRENLNYYADYLSQELGKGRTMDEIIEEIGEPNIVARTIINSAEAA", "soluble fraction (log2)": 0.0708}, {"sequence": "HMNKDWQDEVALQRYTMITPLLSEDLDNAKRIAMREKIAQDNLTTARSLYRYEKAYRENGFQGLRPTD", "soluble fraction (log2)": -0.146}, {"sequence": "HMNKEIEDYVATYSSMKAKEAAAIFDTMTSDLDLVAKILEAMSADDRAKILEQMNEENAARLTKMMD", "soluble fraction (log2)": 0.21}, {"sequence": "HMNKEQIASNIAEARKRSGLNQSELARRLGIRPQSVQQWEKGTATPKLDRLTAIAQVLGVSLESLTG", "soluble fraction (log2)": -0.0259}, {"sequence": "HMNKFADLAGNIIYNENGVEVFNFGKYKGQPVAEVFKKDIGYYGWIQNADFPRYTKKVFTAIQLKSK", "soluble fraction (log2)": -1.22}, {"sequence": "HMNKIDVVEVDMSKPYEDMTVTELQNVILGKLASNGPVTDQMKKDVAENIYHDSLVNWAKSF", "soluble fraction (log2)": 0.505}, {"sequence": "HMNKIENLSQTILNILRKDHSQAFNYKQIAAKLQLDDPSSRNQIVKKLKDLQGKGTIQEIERGKYILTP", "soluble fraction (log2)": 0.358}, {"sequence": "HMNKITIDQAKEIALNHAKLTAEQVSFIRTESEFDDGIEKYNIEFYYNNQKYDYDINAVNGQIIQYDLEG", "soluble fraction (log2)": -0.0582}, {"sequence": "HMNKITIEEAKSIALKHSNLDESQVSFIRSEYDFDNGIEKYEIEFYYNNNKYEYEINAKTGDIISYDYDI", "soluble fraction (log2)": -0.292}, {"sequence": "HMNKKAAYKDMAGYFAEMKSKDAADILSRLKDEDIIGIFNEMPRDMVAEMLQKMDRDKATTLTRKML", "soluble fraction (log2)": 0.385}, {"sequence": "HMNKKEQYQNIISNFLEKMSEEDRLIFNMHFFKSINISQIARSIDREGYYVKTKIENLLADLKSLMIGNNL", "soluble fraction (log2)": -1.95}, {"sequence": "HMNKKETRLNNFIHFLKIRNSITVKEMANHLNVSEMTVRRDIKELTADHTINFENGKIMFNPQSSL", "soluble fraction (log2)": -1.06}, {"sequence": "HMNKLIIDAAEDKIFFMIMNNDISYNISHENTKINFEKLIILINDFLSSKKLKINDITGLYV", "soluble fraction (log2)": 0.067}, {"sequence": "HMNKNIKIPNISNLSREDAESVLKESGISVSTEIKEVESDTIEKGKVVKTEPSIGSTVKQGRTITIYISSG", "soluble fraction (log2)": 0.0574}, {"sequence": "HMNKRYKVQVTTDNLKIRKGAGTSYPVVGHITDKGTYTIVETSGKWGKLLSGAGWIYLSYTKK", "soluble fraction (log2)": -1.76}, {"sequence": "HMNKTEIISILEKIVLPTQIRNINIFGSEVIIDLNIDNPSLHAKKKLEKSIINSFDKNHKIIINFNVE", "soluble fraction (log2)": -0.232}, {"sequence": "HMNKTLTEQIYDELKSAIIELELKPGEFVTEEYLAEQLGVSRTPLKSAISKLIFEGLMAYEVGKGTYIS", "soluble fraction (log2)": -0.747}, {"sequence": "HMNKVQTFIIEKHIKEVFEHTNRTYYRSGQYYFQTRDEFSMALKRFLKDREPNKKNWIDSIINRA", "soluble fraction (log2)": -0.298}, {"sequence": "HMNKYQFESKIHIYRATKRMTQQELADLVGVSRQTIMQLERNRYNPSMMLAYGIAKVFDVTIEDLFDFSEV", "soluble fraction (log2)": -2.05}, {"sequence": "HMNKYYQQLLQADPTGFIDPFKDLGTYDSRLNTFKEPVSELLNPFSGRPYSKIWQKRIETMREIFISYIKS", "soluble fraction (log2)": -2.86}, {"sequence": "HMNLDVEQIKKEALNQLIEIGNENDGIVTIKDFKKIDDISSLDEDDIEDIRNLLIENNIEIFE", "soluble fraction (log2)": 0.127}, {"sequence": "HMNLEQTIVLGKRLFNNALDTLGKKQRSIKNKQINKLLELLNFKNMNELYQSIGVGDKNPLLMAQMML", "soluble fraction (log2)": -0.458}, {"sequence": "HMNLESNQYVIDISDSQVINKDEFETILNQNKTKDIVIKSNNNVTFTFEKGSMIGAEGKDNYDFSSQVNY", "soluble fraction (log2)": -0.0368}, {"sequence": "HMNLFNEIEKQYQALQDRSSASLVDLRHLLLDIEELVNSPDYQALAPDQRSTLQAARKELMRRIQKQEN", "soluble fraction (log2)": 0.213}, {"sequence": "HMNLGDSLFHARRKQGLSQEAVAEQLGVSRQTVSKWEANETLPDIRQSKLMAKLYHTSLDELI", "soluble fraction (log2)": 0.00427}, {"sequence": "HMNLLDYTTLYVTSDGKSVSFGIAGKEIPVSYIAQEAPGTVVIDDTIRIPRKYDMEYILKRFNES", "soluble fraction (log2)": -1.03}, {"sequence": "HMNLLGDNIRKLRLEKGLGLNEVARLANITGGYLSSIENNKRTNVGTEILESIAKAIGVSVSDFYL", "soluble fraction (log2)": -0.0298}, {"sequence": "HMNLLGERIREIRMEMGLTAKELAQRASVTPGYISQIEHDQIKPSMNVMMRIAEVLNVPMAALLM", "soluble fraction (log2)": -0.51}, {"sequence": "HMNLLPAGTYKLKDLVTAEDEEIGAKKGDVVIAHEDTPPSDRVLGVDIFPVIHKNTSKKIYVSLEDI", "soluble fraction (log2)": 0.46}, {"sequence": "HMNLMQIHVARPPNQLGVFSQEEVAAGLQSGRFLPTDQAWRDGMSAWTPLSQWAEFSSVVAAV", "soluble fraction (log2)": 0.083}, {"sequence": "HMNLNLDITTYKLEELENLLKLKPNYKQEQIFEAKTKMEKFILKSNLNESKREELYIFLDNIYNKLTNNLL", "soluble fraction (log2)": -2.17}, {"sequence": "HMNLPISDREKELLTLLSKGLLYKEIASKLDITIGTVKQHIHNIYHKLHVSNKTEALNLFNK", "soluble fraction (log2)": -0.685}]}]}
